# From patent US20170022268A1 (H LUNDBECK A S, published 2017)
# Where no end group is shown, it is not given here. [ ]: non-standard residue; d: D form. pGlu = O=C1CC[C@@H](C(=O)O)N1
# T1: pyroglutamated murine Aβ3-11 with the addition of a C-terminal cysteine residue, pE-FGHDSGFE-C (murine, not fully specified)
# T1 construct: The range 3-11 counts on Aβ, not on APP; also called murine AβpE3; murine AβpE3-11-C
# T1 peptide: [pGlu]FGHDSGFEC
# T2: pyroglutamated human Aβ3-11 with the addition of a C-terminal cysteine residue, pE-FRHDSGYE-C (human, not fully specified)
# T2 construct: The range 3-11 counts on Aβ, not on APP; also called human AβpE3; human AβpE3-11-C
# T2 peptide: [pGlu]FRHDSGYEC
# B1: monoclonal antibody 5C9 (antibody, V domains shown)
# VH: QIQLQQSGPELVKPGAAVKISCKASGYTFTDYYLNWVKQKPGQGLEWIGWIYPGSGNVKYNEKFKGKATLTADTSSNTAHMQLSSLTSEDTAVYFCTREGLIVYWGQGTLVTVSA
# VL: DVVLTQTPFTLSVTIGQPASISCKSSQSLLHSNGESYLNWLFQRPGQSPKRLIYAVSKLDSGVPDRFTGSGSGTDFTLKISRVEAEDLGVYYCVQGTHFPFTFGGGTKLEIK
# notes: also called LuAb1h
# B2: monoclonal antibody 2E4 (antibody, V domains shown)
# VH: EVKLEESGGGLVQPGGSMKLSCTASGITLNDAWMTWVRQSPEKGLEWVGEIRNKANNHATNYAESVKGRFSISRDDSKGIVYLQMNSLRAEDTGNYYCTRHSYWGPGTLVTVSA
# VL: DILMTQSPSSMSVSLGDTVSITCHASQGIRNNIGWLQEKPGKSFKGLIYHGTKLEDGIPSRFSGSGSGADYSLTISSLESEDVADYYCVQYDQFPYTFGGGTKLEIK
# notes: Mouse hybridoma monoclonal antibody directed against murine AβpE3
# B3: monoclonal antibody 1G11 (antibody, V domains shown)
# VH: EVKLEESGGGLVQPGGSMKLSCTASGLTLSDAWMNWVRQSPEKGLEWVAEIRSKAYKHATYYAESVKGRFTISRDDSKSCIYLQMNTLRAEDTGIYYCTRHGSWGPGTLVTVSA
# VL: DILMSQSPSSMSVSLGDRVSITCRASQGISSKMGWLQQKPGKSSKGLIYHGTKLEDGVPSRFSGSGSGAEYSLTISSLESEDFGDYYCVQYAQFPYTFGGGTKLEIK
# notes: as for B2
# Columns and labels:
# [1] = target: T1, pyroglutamated murine Aβ3-11 with the …; assay: SPR (BIAcore 3000), peptide immobilised on CM5 chip
# Description: (§1) Affinity measurements using SPR technology: Binding affinity of anti-Aβ antibodies was determined using BIAcore 3000 (Biacore, Upsula, Sweden). Human and murine pyroglutaminyl and unmodified Aβ peptides with a C-terminal Cystein were immobilized on a CM5 chip using the 2-(2-pyridinyldithio) ethaneamine hydrochloride (PDEA) coupling technology (GE healthcare).
# [2] = target: T2, pyroglutamated human Aβ3-11 with the …; assay: as above
# Description: as §1
Binder,binding result [1],binding result [2]
B1,no binding,–
B2,–,no binding
B3,–,no binding
